In paper PMC3842936 one finds percentage of membrane-bound protein immuno-precipitated by AdcAII polyclonal antibodies data, which are given here for one substance.

Assay [1] has as its target native AdcAII of Streptococcus pneumoniae D39 (Streptococcus pneumoniae D39 (endogenous in D39 membranes)). The experiment in a line: cross-linking + co-IP; S. pneumoniae D39 membrane preparations incubated with the thiol-cleavable cross-linker DTSSP (0.8 mM, 1 h) before the immuno-precipitation (x-IP); polyclonal antibody against AdcAII and protein A sepharose; immunoblot, signals quantified with Image J. (A western blot detects proteins with antibodies after separation by electrophoresis.)

For assay [2] the target is unchanged. Nature of the assay: co-IP; S. pneumoniae D39 membranes solubilised in 2% Triton X-100, not cross-linked (IP); polyclonal antibody against AdcAII and protein A sepharose; 50 mM HEPES, 150 mM NaCl, pH 8, washes with 2% Triton X-100; immunoblot, signals quantified with Image J.

On to “native PhtD (polyhistidine triad protein D) of Streptococcus pneumoniae D39 (natural protein)”, for which the values for the percentage of membrane-bound protein immuno-precipitated by AdcAII polyclonal antibodies in assay [1] and in assay [2] were 12% and 1.7%, respectively.
